Source: patent US20190338269

Legend:
[1] = molecular target: T1, FVIIv1-psFX-IIa-F2 (FX-IIa expressed with the factor X signal peptide and the FVII isoform v1 propeptide, from HEK, aptamer-purified)
T1 chain 1: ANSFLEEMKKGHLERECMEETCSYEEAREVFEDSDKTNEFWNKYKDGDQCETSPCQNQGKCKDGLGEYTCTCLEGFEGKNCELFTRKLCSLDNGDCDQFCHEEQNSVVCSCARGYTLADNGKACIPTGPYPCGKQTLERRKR
T1 chain 2: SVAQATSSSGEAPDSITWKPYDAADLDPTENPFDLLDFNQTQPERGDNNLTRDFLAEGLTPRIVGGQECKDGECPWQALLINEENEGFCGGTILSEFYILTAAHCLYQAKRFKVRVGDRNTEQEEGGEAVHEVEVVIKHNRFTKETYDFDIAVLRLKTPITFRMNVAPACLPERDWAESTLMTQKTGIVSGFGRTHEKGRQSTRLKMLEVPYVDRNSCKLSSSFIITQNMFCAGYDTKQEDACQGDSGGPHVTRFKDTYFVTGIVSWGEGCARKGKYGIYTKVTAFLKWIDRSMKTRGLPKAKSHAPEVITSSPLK

[2] = molecular target: T2, Opti-HEK-VKOR-IIa (FX-IIa with the factor X signal peptide and factor X propeptide variant, co-expressed with human VKOR in HEK, aptamer-purified)
T2 chain 1: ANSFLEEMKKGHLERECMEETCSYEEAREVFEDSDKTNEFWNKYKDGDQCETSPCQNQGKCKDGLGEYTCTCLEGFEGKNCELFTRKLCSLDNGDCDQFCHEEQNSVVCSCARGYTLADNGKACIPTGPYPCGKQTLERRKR
T2 chain 2: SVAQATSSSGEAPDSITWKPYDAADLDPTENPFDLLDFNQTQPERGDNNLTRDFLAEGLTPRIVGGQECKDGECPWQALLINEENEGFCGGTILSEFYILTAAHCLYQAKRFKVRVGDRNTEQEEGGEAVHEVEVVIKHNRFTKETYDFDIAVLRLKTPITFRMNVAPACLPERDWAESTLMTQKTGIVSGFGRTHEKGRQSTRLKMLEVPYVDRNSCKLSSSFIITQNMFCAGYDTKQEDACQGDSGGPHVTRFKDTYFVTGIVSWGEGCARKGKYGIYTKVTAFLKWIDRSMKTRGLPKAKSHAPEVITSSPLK

B1: factor VIIa/tissue factor (TF) complex (protein)
chain 1: ANAFLEELRPGSLERECKEEQCSFEEAREIFKDAERTKLFWISYSDGDQCASSPCQNGGSCKDQLQSYICFCLPAFEGRNCETHKDDQLICVNENGGCEQYCSDHTGTKRSCRCHEGYSLLADGVSCTPTVEYPCGKIPILEKRNASKPQGRIVGGKVCPKGECPWQVLLLVNGAQLCGGTLINTIWVVSAAHCFDKIKNWRNLIAVLGEHDLSEHDGDEQSRRVAQVIIPSTYVPGTTNHDIALLRLHQPVVLTDHVVPLCLPERTFSERTLAFVRFSLVSGWGQLLDRGATALELMVLNVPRLMTQDCLQQSRKVGDSPNITEYMFCAGYSDGSKDSCKGDSGGPHATHYRGTWYLTGIVSWGQGCATVGHFGVYTRVSQYIEWLQKLMRSEPRPGVLLRAPFP
chain 2: SGTTNTVAAYNLTWKSTNFKTILEWEPKPVNQVYTVQISTKSGDWKSKCFYTTDTECDLTDEIVKDVKQTYLARVFSYPAGNVESTGSAGEPLYENSPEFTPYLETNLGQPTIQSFEQVGTKVNVTVEDERTLVRRNNTFLSLRDVFGKDLIYTLYYWKSSSSGKKTAKTNTNEFLIDVDKGENYCFSVQAVIPSRTVNRKSTDSPVECMGQEKGEFREIFYIIGAVVFVVIILVIILAISLHKCRKAGVGQSWKENSPLNVS
B1 was tested, and the “FXa generated after incubation with FVIIa/TF (rate of hydrolysis of PNAPEP substrate), percent of the plasma FXa control” value [1] was 36% activated relative to the FXa for FVIIv1-psFX-IIa-F2, the “activity after FVIIa/TF activation, percent of that of the molecule containing the wild-type propeptide (Opti-HEK-VKOR-IIa)” value [1] was “an activity of 142% of that of the molecule containing the wild-type propeptide” and the “FXa generated after incubation with FVIIa/TF (rate of hydrolysis of PNAPEP substrate), percent of the plasma FXa control” value [2] was 27% activated relative to the FXa for Opti-HEK-VKOR-IIa.
